Substitutions are numbered along the chain they refer to. Numbers in names are those of the source. One block for each binder: values may come before it.
Legend:
[1] = target: T1, Recombinant Human DLL4 (delta-like protein 4) (human, UniProt Q9NR61 27-524); test: ELISA, DLL4 coated on plate, Fab at 50 nM
T1 construct: Bought recombinant human DLL4 (R&D Systems Cat#1506-D4/CF); also called rHuman DLL4; Delta-like 4

[2] = target: T1, Recombinant Human DLL4 (delta-like …); test: ELISA, DLL4 coated on plate, Fab at 50 nM; remark: listed apart in the source
[3] = target: T1, Recombinant Human DLL4 (delta-like …); test: ELISA, DLL4 coated on plate, Fab at 75 nM
[4] = target: T1, Recombinant Human DLL4 (delta-like …); test: ELISA, DLL4 coated on plate, Fab at 100 nM
[5] = target: T1, Recombinant Human DLL4 (delta-like …); test: ELISA, DLL4 coated on plate, Fab at 200 nM
[6] = target: T1, Recombinant Human DLL4 (delta-like …); test: ELISA, DLL4 coated on plate, Fab at 400 nM
[7] = target: T1, Recombinant Human DLL4 (delta-like …); test: ELISA, DLL4 coated on plate, Fab at 100 nM; remark: listed apart in the source
[8] = target: T1, Recombinant Human DLL4 (delta-like …); test: ELISA, DLL4 coated on plate, Fab at 25 nM (first 25 nM row)
[9] = target: T1, Recombinant Human DLL4 (delta-like …); test: ELISA, DLL4 coated on plate, Fab at 25 nM (second 25 nM row)
[10] = target: T1, Recombinant Human DLL4 (delta-like …); test: ELISA, DLL4 coated on plate, Fab at 0 nM (no-Fab background)
[11] = target: T1, Recombinant Human DLL4 (delta-like …); test: ELISA, DLL4 coated on plate, Fab at 0 nM (no-Fab background, first 0 row)
[12] = target: T1, Recombinant Human DLL4 (delta-like …); test: ELISA, DLL4 coated on plate, Fab at 0 nM (no-Fab background, second 0 row)
[13] = target: T2, Recombinant Human DLL4 (delta-like protein 4) (human, UniProt Q9NR61 27-524); test: ECL (Meso Scale Discovery) binding assay on immobilised DLL4, Fab 10 nM
T2 construct: also called rHuman DLL4

B1: Fab VH1-46_IGHD6-6*01_IGHJ1*01 S102A/S103P/S104F/H111F & L6_IGKJ1*01 (Fab, V domains shown)
VH: QVQLVQSGAEVKKPGASVKVSCKASGYTFTSYYMHWVRQAPGQGLEWMGIINPSGGSTSYAQKFQGRVTMTRDTSTSTVYMELSSLRSEDTAVYYCAREEYAPFSAEYFQFWGQGTLVTVSS
VL: not shown
notes: Tested as a Fab made in E. coli; also called H:APFF & L:wt; APFF
ELISA signal [1]: 0.06
ELISA signal [2]: 0.06
ELISA signal [3]: 0.072
ELISA signal [4]: 0.07
ELISA signal [5]: 0.1
ELISA signal [6]: 0.13
ELISA signal [7]: 0.072
ELISA signal [8]: 0.02
ELISA signal [9]: 0.03
ELISA signal [10]: 0.006
ELISA signal [11]: 0
ELISA signal [12]: 0

B4: Fab VH1-46_IGHD6-6*01_IGHJ1*01 S102A/S103P/S104F/H111F & L6_IGKJ1*01 S31H (Fab, V domains shown)
VH: B1 VH
VL: EIVLTQSPATLSLSPGERATLSCRASQSVSHYLAWYQQKPGQAPRLLIYDASNRATGIPARFSGSGSGTDFTLTISSLEPEDFAVYYCQQRSNWPPWTFGQGTKVEIKR
notes: Tested as a Fab; also called APFF & S31H
ELISA signal [1]: 0.05
ELISA signal [4]: 0.09
ELISA signal [5]: 0.11
ELISA signal [6]: 0.2
ELISA signal [8]: 0.03
ELISA signal [9]: 0.03
ELISA signal [11]: 0
ELISA signal [12]: 0

B5: Fab VH1-46_IGHD6-6*01_IGHJ1*01 S102A/S103P/S104F/H111F & L6_IGKJ1*01 S28N/S30D/S31H (Fab, V domains shown)
VH: B1 VH
VL: B4 VL with S28N, S30D
notes: Tested as a Fab; also called H:APFF & L:NDH; APFF-NDH
ELISA signal [2]: 0.202
ELISA signal [3]: 0.268
ELISA signal [7]: 0.259
ELISA signal [10]: 0.002

B7: Fab VH1-46_IGHD6-6*01_IGHJ1*01 S102A/S103P/S104F/H111F & L6_IGKJ1*01 S28N (Fab, V domains shown)
VH: B1 VH
VL: B4 VL with S28N, H31S
notes: Tested as a Fab; also called APFF & S28N
ELISA signal [1]: 0.07
ELISA signal [4]: 0.13
ELISA signal [5]: 0.17
ELISA signal [6]: 0.19
ELISA signal [8]: 0.04
ELISA signal [9]: 0.05
ELISA signal [11]: 0
ELISA signal [12]: 0

B8: Fab VH1-46_IGHD6-6*01_IGHJ1*01 S102A/S103P/S104F/H111F & L6_IGKJ1*01 S28H (Fab, V domains shown)
VH: B1 VH
VL: B4 VL with S28H, H31S
notes: Tested as a Fab; also called APFF & S28H
ELISA signal [1]: 0.05
ELISA signal [4]: 0.09
ELISA signal [5]: 0.14
ELISA signal [6]: 0.13
ELISA signal [8]: 0.03
ELISA signal [9]: 0.03
ELISA signal [11]: 0.01
ELISA signal [12]: 0

B10: Fab VH1-46_IGHD6-6*01_IGHJ1*01 S102A/S103P/S104F/H111F & L6_IGKJ1*01 S30D (Fab, V domains shown)
VH: B1 VH
VL: B4 VL with S30D, H31S
notes: Tested as a Fab; also called APFF & S30D
ELISA signal [1]: 0.06
ELISA signal [4]: 0.09
ELISA signal [5]: 0.11
ELISA signal [6]: 0.13
ELISA signal [8]: 0.03
ELISA signal [9]: 0.03
ELISA signal [11]: 0
ELISA signal [12]: 0.01

Further lines, results first:

Signal [10 nM Fab] [13]: 15700
B2: Fab VH1-46_IGHD6-6*01_IGHJ1*01 S102A/S103P/S104F/H111F (APFF) & L6_IGKJ1*01 S76T (Fab, V domains shown)
VH: B1 VH
VL: B4 VL with H31S, S76T
notes: Fab made in E. coli: VH in plasmid A (CH1, His6 and Flag tags), VL in plasmid C (kappa CL); also called H:APFF & L6_IGKJ1*01 S76T

ELISA signal [2]: 0.154
ELISA signal [3]: 0.212
ELISA signal [7]: 0.213
ELISA signal [10]: 0
B3: Fab VH1-46_IGHD6-6*01_IGHJ1*01 S102A/S103P/S104F/H111F/S54A & L6_IGKJ1*01 S28N/S30D/S31H (Fab, V domains shown)
VH: B1 VH with S54A
VL: B4 VL with S28N, S30D
notes: Tested as a Fab; also called H:APFF S54A & L:NDH

ELISA signal [2]: 0.366
ELISA signal [3]: 0.543
ELISA signal [7]: 0.453
ELISA signal [10]: 0.002
B6: Fab VH1-46_IGHD6-6*01_IGHJ1*01 S102A/S103P/S104F/H111F/G56A & L6_IGKJ1*01 S28N/S30D/S31H (Fab, V domains shown)
VH: B1 VH with G56A
VL: B4 VL with S28N, S30D
notes: Tested as a Fab; also called H:APFF G56A & L:NDH

ELISA signal [2]: 0.301
ELISA signal [3]: 0.399
ELISA signal [7]: 0.338
ELISA signal [10]: 0.002
B9: Fab VH1-46_IGHD6-6*01_IGHJ1*01 S102A/S103P/S104F/H111F/G56A & L6_IGKJ1*01 (Fab, V domains shown)
VH: B1 VH with G56A
VL: not shown
notes: Tested as a Fab; also called APFF G56A & Parent

Signal [10 nM Fab] [13]: 14800
B11: Fab VH1-46_IGHD6-6*01_IGHJ1*01 S102A/S103P/S104F/H111F (APFF) & L6_IGKJ1*01 S76Y (Fab, V domains shown)
VH: B1 VH
VL: B4 VL with H31S, S76Y
notes: Fab made in E. coli: VH in plasmid A (CH1, His6 and Flag tags), VL in plasmid C (kappa CL); also called H:APFF & L6_IGKJ1*01 S76Y

Signal [10 nM Fab] [13]: 13700
B12: Fab VH1-46_IGHD6-6*01_IGHJ1*01 S102A/S103P/S104F/H111F (APFF) & L6_IGKJ1*01 S76L (Fab, V domains shown)
VH: B1 VH
VL: B4 VL with H31S, S76L
notes: Fab made in E. coli: VH in plasmid A (CH1, His6 and Flag tags), VL in plasmid C (kappa CL); also called H:APFF & L6_IGKJ1*01 S76L
